Publication PMC3421056 (2012)

T1: Factor Xa (Homo sapiens, UniProt P00742)
T1 chain: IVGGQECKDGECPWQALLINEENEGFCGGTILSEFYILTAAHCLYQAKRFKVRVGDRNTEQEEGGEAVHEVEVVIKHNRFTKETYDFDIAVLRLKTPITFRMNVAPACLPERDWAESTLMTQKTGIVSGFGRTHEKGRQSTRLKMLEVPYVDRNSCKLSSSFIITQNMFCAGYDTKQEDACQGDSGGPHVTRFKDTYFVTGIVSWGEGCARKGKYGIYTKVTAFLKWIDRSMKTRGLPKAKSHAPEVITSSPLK


Experiments:
Factor Xa [1] = molecular target: T1, Factor Xa; test: chromogenic substrate S2222 inhibition, apparent Ki
Factor Xa [2] = molecular target: T1, Factor Xa; test: SPR steady-state
Factor Xa [3] = molecular target: T1, Factor Xa; test: SPR kinetics
Factor Xa [4] = molecular target: T1, Factor Xa; test: ITC
Factor Xa [5] = molecular target: T1, Factor Xa; test: chromogenic substrate S2222 inhibition, alphaKi

Binder	Ki (Factor Xa [1]) [nM]	Kd (Factor Xa [2]) [nM]	Kd (Factor Xa [3]) [nM]	Kd (Factor Xa [4]) [nM]	Ki (Factor Xa [5]) [nM]
Lufaxin 1-278 (protein) DGDEYFIGKYKEKDETLFFASYGLKRDPCQIVLGYKCSNNQTHFVLNFKTNKKSCISAIKLTSYPKINQNSDLTKNLYCQTGGIGTDNCKLVFKKRKRQIAANIEIYGIPAKKCSFKDRYIGADPLHVDSYGLPYQFDQEHGWNVERYNIFKDTRFSTEVFYHKNGLFNTQITYLAEEDSFSEAREITAKDIKKKFSIILPNEEYKRISFLDVYWFQETMRKKPKYPYIHYNGECSNENKTCELVFDTDELMTYALVKVFTNPESDGSRLKEEDLGRG	0.95	9.69	3.86	2.1	
Lufaxin 1-278 (protein, S2222 substrate-bound FXa) DGDEYFIGKYKEKDETLFFASYGLKRDPCQIVLGYKCSNNQTHFVLNFKTNKKSCISAIKLTSYPKINQNSDLTKNLYCQTGGIGTDNCKLVFKKRKRQIAANIEIYGIPAKKCSFKDRYIGADPLHVDSYGLPYQFDQEHGWNVERYNIFKDTRFSTEVFYHKNGLFNTQITYLAEEDSFSEAREITAKDIKKKFSIILPNEEYKRISFLDVYWFQETMRKKPKYPYIHYNGECSNENKTCELVFDTDELMTYALVKVFTNPESDGSRLKEEDLGRG					2.21
